This passage reports enrichment results from PMC11969024 (2025).

First the molecules themselves.
B1: peptide HD2 (from tick evasin EVA4) / CCL11 (biotinylated, synthetic) (parent complex)
chain 1: EEDDYTAYAPLTCYFT
chain 2: not shown

Variants of B1 are the subject of the assay.
For chain 1 F15G, the enrichment was -2.42 log2 (difference from the parental peptide).
As to chain 1 F15E, the enrichment was 0.713 log2 (difference from the parental peptide).
Under chain 1 F15C stands -4.03 log2 (difference from the parental peptide).
With chain 1 F15H, the enrichment was -0.581 log2 (difference from the parental peptide).
For the variant chain 1 F15S, the enrichment is 0.275 log2 (difference from the parental peptide).
Regarding chain 1 F15Y, the enrichment was 0.26 log2 (difference from the parental peptide).
Under chain 1 F15M stands 0.54 log2 (difference from the parental peptide); under chain 1 F15L, 0.0745 log2 (difference from the parental peptide); under chain 1 F15W, -1.47 log2 (difference from the parental peptide).
For the variant chain 1 F15T, the enrichment was 1.13 log2 (difference from the parental peptide).
With chain 1 F15P, the enrichment is -0.525 log2 (difference from the parental peptide).
Take chain 1 F15I: the enrichment is 0.05 log2 (difference from the parental peptide).
With chain 1 E2K, the enrichment was -3.4 log2 (difference from the parental peptide).
Under chain 1 E2P stands -2.92 log2 (difference from the parental peptide); under chain 1 E2L, -1.7 log2 (difference from the parental peptide); under chain 1 E2N, -2.1 log2 (difference from the parental peptide).
Under chain 1 E2Q stands -1.08 log2 (difference from the parental peptide); under chain 1 E2R, -4.24 log2 (difference from the parental peptide).
On to chain 1 P10L, for which the enrichment was -9.08 log2 (difference from the parental peptide).
In the case of chain 1 P10E it was -7.48 log2 (difference from the parental peptide).
Under chain 1 P10Q stands -3.8 log2 (difference from the parental peptide); under chain 1 T16F, -0.46 log2 (difference from the parental peptide); under chain 1 T16E, 2.21 log2 (difference from the parental peptide).
Regarding chain 1 T16N, the enrichment is 0.695 log2 (difference from the parental peptide).
As to chain 1 T16H, the enrichment was 0.297 log2 (difference from the parental peptide).
For chain 1 T16S, the enrichment was 1.18 log2 (difference from the parental peptide).
Under chain 1 T16M stands 0.752 log2 (difference from the parental peptide); under chain 1 T16P, 1.77 log2 (difference from the parental peptide); under chain 1 T16W, -0.88 log2 (difference from the parental peptide).
In the case of chain 1 T16Y it was -0.239 log2 (difference from the parental peptide); in that of chain 1 T16V, 0.462 log2 (difference from the parental peptide); in that of chain 1 T16R, -1.09 log2 (difference from the parental peptide).
Take chain 1 C13E: the enrichment is -8.19 log2 (difference from the parental peptide).
On to chain 1 C13G, for which the enrichment is -8.69 log2 (difference from the parental peptide).
As for chain 1 C13V, the enrichment is -5.2 log2 (difference from the parental peptide).
In the case of chain 1 C13A it was -8.03 log2 (difference from the parental peptide).
Take chain 1 C13P: the enrichment is -6.72 log2 (difference from the parental peptide).
Regarding chain 1 C13L, the enrichment was -6.8 log2 (difference from the parental peptide).
Turning to chain 1 C13N, the enrichment was -8.78 log2 (difference from the parental peptide).
Turning to chain 1 C13I, the enrichment was -6.17 log2 (difference from the parental peptide).
As to chain 1 C13H, the enrichment was -9.22 log2 (difference from the parental peptide).
Under chain 1 C13T stands -6.48 log2 (difference from the parental peptide); under chain 1 T6L, -2.13 log2 (difference from the parental peptide).
On to chain 1 T6K, for which the enrichment was -1.28 log2 (difference from the parental peptide).
Regarding chain 1 T6V, the enrichment is -3.9 log2 (difference from the parental peptide).
chain 1 T6E: the enrichment is 3.27 log2 (difference from the parental peptide).
With chain 1 T6Q, the enrichment was 0.834 log2 (difference from the parental peptide).
In the case of chain 1 T6Y it was -1.69 log2 (difference from the parental peptide); in that of chain 1 T6W, -0.511 log2 (difference from the parental peptide); in that of chain 1 T6S, 2.88 log2 (difference from the parental peptide).
In the case of chain 1 T6F it was -4.68 log2 (difference from the parental peptide); in that of chain 1 T6D, 3.92 log2 (difference from the parental peptide).
For the variant chain 1 T6G, the enrichment is 2.76 log2 (difference from the parental peptide).
With chain 1 T6A, the enrichment was 1.96 log2 (difference from the parental peptide).
chain 1 T6R: the enrichment was -0.866 log2 (difference from the parental peptide).
In the case of chain 1 T6H, the enrichment is -0.677 log2 (difference from the parental peptide).
As to chain 1 D3H, the enrichment was -2.18 log2 (difference from the parental peptide).
For chain 1 D3A, the enrichment is -2.56 log2 (difference from the parental peptide).
As to chain 1 D3Y, the enrichment is -0.781 log2 (difference from the parental peptide).
As for chain 1 D3S, the enrichment is -2.82 log2 (difference from the parental peptide).
Regarding chain 1 D3P, the enrichment is -3.5 log2 (difference from the parental peptide).
For the variant chain 1 D3N, the enrichment was -2.05 log2 (difference from the parental peptide).
Consider chain 1 D3Q, for which the enrichment is -4.56 log2 (difference from the parental peptide).
As for chain 1 D3C, the enrichment was -10.5 log2 (difference from the parental peptide).
On to chain 1 D3G, for which the enrichment is -2.94 log2 (difference from the parental peptide).
In the case of chain 1 D3R it was -4.57 log2 (difference from the parental peptide); in that of chain 1 D3E, 1.42 log2 (difference from the parental peptide); in that of chain 1 D3V, -3.65 log2 (difference from the parental peptide).
Consider chain 1 D3W, for which the enrichment is -3.25 log2 (difference from the parental peptide).
For the variant chain 1 D3L, the enrichment was -3.39 log2 (difference from the parental peptide).
Take chain 1 E1L: the enrichment was -1.42 log2 (difference from the parental peptide).
For chain 1 E1I, the enrichment was -0.709 log2 (difference from the parental peptide).
Take chain 1 E1M: the enrichment was -0.0601 log2 (difference from the parental peptide).
In the case of chain 1 E1R it was -2.69 log2 (difference from the parental peptide); in that of chain 1 E1V, -1.08 log2 (difference from the parental peptide).
chain 1 E1K: the enrichment is -2.4 log2 (difference from the parental peptide).
As to chain 1 E1Q, the enrichment is -0.591 log2 (difference from the parental peptide).
As for chain 1 E1P, the enrichment was -1 log2 (difference from the parental peptide).
Turning to chain 1 E1N, the enrichment was -0.236 log2 (difference from the parental peptide).
Turning to chain 1 E1H, the enrichment is -1.51 log2 (difference from the parental peptide).
Turning to chain 1 E1F, the enrichment was -2.2 log2 (difference from the parental peptide).
For the variant chain 1 E1S, the enrichment is -0.538 log2 (difference from the parental peptide).
For chain 1 E1A, the enrichment is -0.354 log2 (difference from the parental peptide).
As to chain 1 Y5D, the enrichment was -3.62 log2 (difference from the parental peptide).
With chain 1 Y5E, the enrichment is 0.188 log2 (difference from the parental peptide).
As to chain 1 Y5S, the enrichment was -5.35 log2 (difference from the parental peptide).
In the case of chain 1 Y5L it was -2.37 log2 (difference from the parental peptide); in that of chain 1 Y5T, -4.78 log2 (difference from the parental peptide).
In the case of chain 1 Y5V, the enrichment is -5.26 log2 (difference from the parental peptide).
Take chain 1 Y5P: the enrichment was -7.31 log2 (difference from the parental peptide).
Under chain 1 Y5W stands 1.88 log2 (difference from the parental peptide); under chain 1 Y14L, -3.46 log2 (difference from the parental peptide); under chain 1 Y14I, -2.68 log2 (difference from the parental peptide).
In the case of chain 1 Y14Q it was -4.82 log2 (difference from the parental peptide); in that of chain 1 Y14E, -7.34 log2 (difference from the parental peptide).
For chain 1 Y14M, the enrichment is -2.62 log2 (difference from the parental peptide).
In the case of chain 1 T12L, the enrichment was -0.794 log2 (difference from the parental peptide).
For the variant chain 1 T12A, the enrichment was -2.95 log2 (difference from the parental peptide).
Under chain 1 T12G stands -9.29 log2 (difference from the parental peptide).
As for chain 1 T12Q, the enrichment was -1.12 log2 (difference from the parental peptide).
In the case of chain 1 T12V it was -0.494 log2 (difference from the parental peptide).
Consider chain 1 T12M, for which the enrichment was -1.76 log2 (difference from the parental peptide).
For chain 1 T12Y, the enrichment was -1.75 log2 (difference from the parental peptide).
For chain 1 T12I, the enrichment is -1.03 log2 (difference from the parental peptide).
Take chain 1 T12F: the enrichment was -3.13 log2 (difference from the parental peptide).
Regarding chain 1 T12H, the enrichment is -1.8 log2 (difference from the parental peptide).
chain 1 Y8C: the enrichment was -9.26 log2 (difference from the parental peptide).
For the variant chain 1 Y8M, the enrichment is -6.75 log2 (difference from the parental peptide).
As to chain 1 Y8F, the enrichment is 1.62 log2 (difference from the parental peptide).
For chain 1 Y8L, the enrichment was -9.35 log2 (difference from the parental peptide).
With chain 1 Y8N, the enrichment is -5.38 log2 (difference from the parental peptide).
In the case of chain 1 Y8V, the enrichment was -8.13 log2 (difference from the parental peptide).
In the case of chain 1 Y8S, the enrichment was -6.51 log2 (difference from the parental peptide).
Under chain 1 L11D stands -6.85 log2 (difference from the parental peptide); under chain 1 L11C, 1.22 log2 (difference from the parental peptide); under chain 1 L11K, -0.948 log2 (difference from the parental peptide).
For the variant chain 1 L11G, the enrichment was -5.15 log2 (difference from the parental peptide).
For the variant chain 1 L11M, the enrichment is 2.06 log2 (difference from the parental peptide).
In the case of chain 1 L11W, the enrichment was -0.874 log2 (difference from the parental peptide).
For the variant chain 1 L11R, the enrichment is -0.735 log2 (difference from the parental peptide).
With chain 1 L11H, the enrichment was 0.483 log2 (difference from the parental peptide).
In the case of chain 1 L11P it was -8.67 log2 (difference from the parental peptide).
Regarding chain 1 L11A, the enrichment was -0.668 log2 (difference from the parental peptide).
As for chain 1 D4A, the enrichment was -3.23 log2 (difference from the parental peptide).
As for chain 1 D4F, the enrichment is -4.42 log2 (difference from the parental peptide).
As for chain 1 D4V, the enrichment was -4.79 log2 (difference from the parental peptide).
For chain 1 D4I, the enrichment is -4.32 log2 (difference from the parental peptide).
On to chain 1 D4N, for which the enrichment was -2.87 log2 (difference from the parental peptide).
Take chain 1 D4L: the enrichment was -4.32 log2 (difference from the parental peptide).
With chain 1 D4E, the enrichment is -0.216 log2 (difference from the parental peptide).
Regarding chain 1 D4R, the enrichment is -6.08 log2 (difference from the parental peptide).
For chain 1 D4Q, the enrichment was -3.06 log2 (difference from the parental peptide).
In the case of chain 1 D4H, the enrichment was -5.76 log2 (difference from the parental peptide).
As for chain 1 D4M, the enrichment is -3.45 log2 (difference from the parental peptide).
As to chain 1 D4P, the enrichment was -3.25 log2 (difference from the parental peptide).
For the variant chain 1 A7I, the enrichment was -0.213 log2 (difference from the parental peptide).
Turning to chain 1 A7S, the enrichment is 0.886 log2 (difference from the parental peptide).
In the case of chain 1 A7Y, the enrichment was -0.616 log2 (difference from the parental peptide).
As for chain 1 A7G, the enrichment is -1.16 log2 (difference from the parental peptide).
Take chain 1 A7H: the enrichment is -0.338 log2 (difference from the parental peptide).
Consider chain 1 A7T, for which the enrichment was -0.43 log2 (difference from the parental peptide).
In the case of chain 1 A7V, the enrichment was -0.751 log2 (difference from the parental peptide).
Under chain 1 A7Q stands 2.3 log2 (difference from the parental peptide); under chain 1 A7N, 1.29 log2 (difference from the parental peptide).
For the variant chain 1 A9M, the enrichment was -3.46 log2 (difference from the parental peptide).
For chain 1 A9G, the enrichment was -4.51 log2 (difference from the parental peptide).
In the case of chain 1 A9L, the enrichment is -7.13 log2 (difference from the parental peptide).
With chain 1 A9P, the enrichment was -8.38 log2 (difference from the parental peptide).
Under chain 1 A9K stands -4.4 log2 (difference from the parental peptide).
Under chain 1 A9Q stands -0.313 log2 (difference from the parental peptide).
